Experimental data taken from patent US20260098059A1 (ENDOMET BIOSCIENCES, published 2026).
Where “and” joins values, the source holds several entries; their conditions need not be identical. Equal values may be shown once. [ ]: non-standard residue; d: D form. The star is where a group is joined. NMeW = CN[C@@H](Cc1c[nH]c2ccccc12)C(=O)O; Stearoyl = CCCCCCCCCCCCCCCCCC(=O)*; Palmitoyl = CCCCCCCCCCCCCCCC(=O)*; αMeV = CC(C)[C@](C)(N)C(=O)O; αMeS = C[C@](N)(CO)C(=O)O; GABA = NCCCC(=O)O; βAla = NCCC(=O)O

What follows are binders tested against T1, β-catenin (UniProt P35222 134-665, limits assumed, biotinylated in the SPR and plate assays) (assay: cell-based or functional assay).
T1 sequence (looked up): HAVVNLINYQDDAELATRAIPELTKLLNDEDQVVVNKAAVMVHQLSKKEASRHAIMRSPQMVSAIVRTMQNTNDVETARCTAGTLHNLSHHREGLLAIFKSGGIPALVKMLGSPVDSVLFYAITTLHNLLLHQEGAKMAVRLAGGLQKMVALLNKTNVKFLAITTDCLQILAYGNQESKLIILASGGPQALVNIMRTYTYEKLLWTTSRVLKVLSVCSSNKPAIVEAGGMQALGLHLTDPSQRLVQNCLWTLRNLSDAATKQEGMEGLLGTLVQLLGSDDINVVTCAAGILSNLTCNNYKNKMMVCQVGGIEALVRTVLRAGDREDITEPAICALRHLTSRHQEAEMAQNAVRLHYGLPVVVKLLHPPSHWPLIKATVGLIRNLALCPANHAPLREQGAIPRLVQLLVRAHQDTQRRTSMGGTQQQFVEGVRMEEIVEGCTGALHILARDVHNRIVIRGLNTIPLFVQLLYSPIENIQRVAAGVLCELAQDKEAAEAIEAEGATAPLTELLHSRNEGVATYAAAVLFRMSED

| Binder | Wnt Reporter EC50 | Proliferation IC50, Wnt dependent cells [µM] | Proliferation IC50, Endo cells [µM] |
| --- | --- | --- | --- |
| Stearoyl-[βAla]W[NMeW]E[αMeS]ILDEH[αMeV]QRVW-OH (SMILES CCCCCCCCCCCCCCCCCC(=O)NCCC(=O)N[C@@H](Cc1c[nH]c2ccccc12)C(=O)N(C)[C@@H](Cc1c[nH]c2ccccc12)C(=O)N[C@@H](CCC(=O)O)C(=O)N[C@@](C)(CO)C(=O)N[C@H](C(=O)N[C@@H](CC(C)C)C(=O)N[C@@H](CC(=O)O)C(=O)N[C@@H](CCC(=O)O)C(=O)N[C@@H](Cc1c[nH]cn1)C(=O)N[C@](C)(C(=O)N[C@@H](CCC(N)=O)C(=O)N[C@@H](CCCNC(=N)N)C(=O)N[C@H](C(=O)N[C@@H](Cc1c[nH]c2ccccc12)C(=O)O)C(C)C)C(C)C)[C@@H](C)CC) [SEQ ID NO: 394] | > 7.5 µM and ≤ 15 µM | – | – |
| {Stearoyl-GABA}-W[NMeW]E[αMeS]ILDEH[αMeV]QRVWG-OH [SEQ ID NO: 392] | ≤ 7.5 µM | – | – |
| H-MSRMWFLISFWG-OH [SEQ ID NO: 41] | ≤ 7.5 µM | – | – |
| H-MSRMWFPISFWG-OH [SEQ ID NO: 65] | > 30 µM | – | – |
| H-MSRMWLLISFWG-OH [SEQ ID NO: 60] | > 7.5 µM and ≤ 15 µM | – | – |
| H-MSRVWFLISFWG-OH [SEQ ID NO: 64] | > 7.5 µM and ≤ 15 µM | – | – |
| H-MSRMWFLTSFWG-OH [SEQ ID NO: 62] | > 30 µM | – | – |
| H-MSRMWFLVSFWG-OH [SEQ ID NO: 56] | > 7.5 µM and ≤ 15 µM | – | – |
| H-MSRMWFLFSFWG-OH [SEQ ID NO: 63] | ≤ 7.5 µM | – | – |
| H-MNRMWFLISFWG-OH [SEQ ID NO: 61] | > 7.5 µM and ≤ 15 µM | – | – |
| H-MSRMWFLISLWG-OH [SEQ ID NO: 68] | > 7.5 µM and ≤ 15 µM | – | – |
| H-MGRMWFLISFWG-OH [SEQ ID NO: 67] | ≤ 7.5 µM | – | – |
| MSRMAFLISFWG (HELM PEPTIDE1{M.S.R.M.[meA].F.L.I.S.F.W.G}$$$$V2.0; SMILES CC[C@H](C)[C@H](NC(=O)[C@H](CC(C)C)NC(=O)[C@H](Cc1ccccc1)NC(=O)[C@H](C)N(C)C(=O)[C@H](CCSC)NC(=O)[C@H](CCCNC(=N)N)NC(=O)[C@H](CO)NC(=O)[C@@H](N)CCSC)C(=O)N[C@@H](CO)C(=O)N[C@@H](Cc1ccccc1)C(=O)N[C@@H](Cc1c[nH]c2ccccc12)C(=O)NCC(=O)O) [SEQ ID NO: 50] | > 30 µM | – | – |
| H-MSRMWFLISSWG-OH [SEQ ID NO: 54] | > 15 µM and ≤ 22.5 µM | – | – |
| H-MSRMLFLISFWG-OH [SEQ ID NO: 52] | > 15 µM and ≤ 22.5 µM | – | – |
| H-MSRIWFLISFWG-OH [SEQ ID NO: 55] | ≤ 7.5 µM | – | – |
| H-MSRKWFLISFWG-OH [SEQ ID NO: 59] | > 30 µM | – | – |
| H-MSRMWFLNSFWG-OH [SEQ ID NO: 70] | > 30 µM | – | – |
| H-MSRTWFLISFWG-OH [SEQ ID NO: 48] | > 7.5 µM and ≤ 15 µM | – | – |
| {Stearoyl-GABA}-W[NMeW]E[αMeS]ILDEH[αMeV]QRVW-OH [SEQ ID NO: 395] | > 7.5 µM and ≤ 15 µM | 6.8 | – |
| H-MSRMWFLISFWEG-OH [SEQ ID NO: 57] | ≤ 7.5 µM | – | – |
| H-MSRMWFLISFWRG-OH [SEQ ID NO: 58] | > 22.5 µM and ≤ 30 µM | – | – |

Next, values leading:

| Wnt Reporter EC50 | Proliferation IC50, Wnt dependent cells [µM] | Proliferation IC50, Endo cells [µM] | Binder |
| --- | --- | --- | --- |
| > 7.5 µM and ≤ 15 µM | – | – | Palmitoyl-[βAla]W[NMeW]E[αMeS]ILDEH[αMeV]QRVW-OH (SMILES CCCCCCCCCCCCCCCC(=O)NCCC(=O)N[C@@H](Cc1c[nH]c2ccccc12)C(=O)N(C)[C@@H](Cc1c[nH]c2ccccc12)C(=O)N[C@@H](CCC(=O)O)C(=O)N[C@@](C)(CO)C(=O)N[C@H](C(=O)N[C@@H](CC(C)C)C(=O)N[C@@H](CC(=O)O)C(=O)N[C@@H](CCC(=O)O)C(=O)N[C@@H](Cc1c[nH]cn1)C(=O)N[C@](C)(C(=O)N[C@@H](CCC(N)=O)C(=O)N[C@@H](CCCNC(=N)N)C(=O)N[C@H](C(=O)N[C@@H](Cc1c[nH]c2ccccc12)C(=O)O)C(C)C)C(C)C)[C@@H](C)CC) [SEQ ID NO: 399] |
| ≤ 7.5 µM | – | – | WAQKILNDHGQAV (HELM PEPTIDE1{[CCCCCCCCCCCC(=O)[*:2]].W.[meA].Q.K.I.L.N.D.H.[O=C([C@@H](N[*:1])C1CCCCC1)[*:2]].Q.A.V.[am]}$PEPTIDE1,PEPTIDE1,5:R3-9:R3$$$V2.0; SMILES CCCCCCCCCCCC(=O)N[C@@H](Cc1c[nH]c2ccccc12)C(=O)N(C)[C@@H](C)C(=O)N[C@@H](CCC(N)=O)C(=O)N[C@H]1CCCCNC(=O)C[C@@H](C(=O)N[C@@H](Cc2c[nH]cn2)C(=O)N[C@H](C(=O)N[C@@H](CCC(N)=O)C(=O)N[C@@H](C)C(=O)N[C@H](C(N)=O)C(C)C)C2CCCCC2)NC(=O)[C@H](CC(N)=O)NC(=O)[C@H](CC(C)C)NC(=O)[C@H]([C@@H](C)CC)NC1=O) [SEQ ID NO: 453] |
| > 30 µM | – | – | AEEDPQTILDDHLSRVLK (HELM PEPTIDE1{[ac].[bAla].E.E.D.P.Q.T.I.L.D.D.H.L.S.R.V.L.K.[am]}$$$$V2.0; SMILES CC[C@H](C)[C@H](NC(=O)[C@@H](NC(=O)[C@H](CCC(N)=O)NC(=O)[C@@H]1CCCN1C(=O)[C@H](CC(=O)O)NC(=O)[C@H](CCC(=O)O)NC(=O)[C@H](CCC(=O)O)NC(=O)CCNC(C)=O)[C@@H](C)O)C(=O)N[C@@H](CC(C)C)C(=O)N[C@@H](CC(=O)O)C(=O)N[C@@H](CC(=O)O)C(=O)N[C@@H](Cc1c[nH]cn1)C(=O)N[C@@H](CC(C)C)C(=O)N[C@@H](CO)C(=O)N[C@@H](CCCNC(=N)N)C(=O)N[C@H](C(=O)N[C@@H](CC(C)C)C(=O)N[C@@H](CCCCN)C(N)=O)C(C)C) [SEQ ID NO: 412] |
| ≤ 7.5 µM | – | – | WAQKILNDHGQAV (HELM PEPTIDE1{[CCCCCCCCCCCCCCCC(=O)[*:2]].W.[meA].Q.K.I.L.N.D.H.[O=C([C@@H](N[*:1])C1CCCCC1)[*:2]].Q.A.V.[am]}$PEPTIDE1,PEPTIDE1,5:R3-9:R3$$$V2.0; SMILES CCCCCCCCCCCCCCCC(=O)N[C@@H](Cc1c[nH]c2ccccc12)C(=O)N(C)[C@@H](C)C(=O)N[C@@H](CCC(N)=O)C(=O)N[C@H]1CCCCNC(=O)C[C@@H](C(=O)N[C@@H](Cc2c[nH]cn2)C(=O)N[C@H](C(=O)N[C@@H](CCC(N)=O)C(=O)N[C@@H](C)C(=O)N[C@H](C(N)=O)C(C)C)C2CCCCC2)NC(=O)[C@H](CC(N)=O)NC(=O)[C@H](CC(C)C)NC(=O)[C@H]([C@@H](C)CC)NC1=O) [SEQ ID NO: 454] |
| > 7.5 µM and ≤ 15 µM | – | – | Palmitoyl-GW[NMeW]E[αMeS]ILDEH[αMeV]QRVW-OH [SEQ ID NO: 398] |
| ≤ 7.5 µM | – | – | WAESILKEHVQRVWG (HELM PEPTIDE1{[CCCCCCCCCCCC(=O)[*:2]].W.[meA].E.S.I.L.K.E.H.V.Q.R.V.W.G.[am]}$PEPTIDE1,PEPTIDE1,4:R3-8:R3$$$V2.0; SMILES CCCCCCCCCCCC(=O)N[C@@H](Cc1c[nH]c2ccccc12)C(=O)N(C)[C@@H](C)C(=O)N[C@H]1CCC(=O)NCCCC[C@@H](C(=O)N[C@@H](CCC(=O)O)C(=O)N[C@@H](Cc2c[nH]cn2)C(=O)N[C@H](C(=O)N[C@@H](CCC(N)=O)C(=O)N[C@@H](CCCNC(=N)N)C(=O)N[C@H](C(=O)N[C@@H](Cc2c[nH]c3ccccc23)C(=O)NCC(N)=O)C(C)C)C(C)C)NC(=O)[C@H](CC(C)C)NC(=O)[C@H]([C@@H](C)CC)NC(=O)[C@H](CO)NC1=O) [SEQ ID NO: 451] |
| > 7.5 µM and ≤ 15 µM | – | – | Palmitoyl-W[NMeW]E[αMeS]ILDEH[αMeV]QRVW-OH [SEQ ID NO: 397] |
| > 7.5 µM and ≤ 15 µM | 2.9 | 15 | Palmitoyl-W[NMeW]E[αMeS]ILDEH[αMeV]QRVWG-OH [SEQ ID NO: 396] |
| > 7.5 µM and ≤ 15 µM | – | – | {Palmitoyl-GABA}-W[NMeW]E[αMeS]ILDEH[αMeV]QRVW-OH [SEQ ID NO: 400] |
